Source: IntAct's records for PubMed 10646860

B1: Apoptosis-stimulating of p53 protein 2 (Homo sapiens), Q13625 (parent)
chain: MMPMFLTVYLSNNEQHFTEVPVTPETICRDVVDLCKEPGESDCHLAEVWCGSERPVADNERMFDVLQRFGSQRNEVRFFLRHERPPGRDIVSGPRSQDPSLKRNGVKVPGEYRRKENGVNSPRMDLTLAELQEMASRQQQQIEAQQQLLATKEQRLKFLKQQDQRQQQQVAEQEKLKRLKEIAENQEAKLKKVRALKGHVEQKRLSNGKLVEEIEQMNNLFQQKQRELVLAVSKVEELTRQLEMLKNGRIDSHHDNQSAVAELDRLYKELQLRNKLNQEQNAKLQQQRECLNKRNSEVAVMDKRVNELRDRLWKKKAALQQKENLPVSSDGNLPQQAASAPSRVAAVGPYIQSSTMPRMPSRPELLVKPALPDGSLVIQASEGPMKIQTLPNMRSGAASQTKGSKIHPVGPDWSPSNADLFPSQGSASVPQSTGNALDQVDDGEVPLREKEKKVRPFSMFDAVDQSNAPPSFGTLRKNQSSEDILRDAQVANKNVAKVPPPVPTKPKQINLPYFGQTNQPPSDIKPDGSSQQLSTVVPSMGTKPKPAGQQPRVLLSPSIPSVGQDQTLSPGSKQESPPAAAVRPFTPQPSKDTLLPPFRKPQTVAASSIYSMYTQQQAPGKNFQQAVQSALTKTHTRGPHFSSVYGKPVIAAAQNQQQHPENIYSNSQGKPGSPEPETEPVSSVQENHENERIPRPLSPTKLLPFLSNPYRNQSDADLEALRKKLSNAPRPLKKRSSITEPEGPNGPNIQKLLYQRTTIAAMETISVPSYPSKSASVTASSESPVEIQNPYLHVEPEKEVVSLVPESLSPEDVGNASTENSDMPAPSPGLDYEPEGVPDNSPNLQNNPEEPNPEAPHVLDVYLEEYPPYPPPPYPSGEPEGPGEDSVSMRPPEITGQVSLPPGKRTNLRKTGSERIAHGMRVKFNPLALLLDSSLEGEFDLVQRIIYEVDDPSLPNDEGITALHNAVCAGHTEIVKFLVQFGVNVNAADSDGWTPLHCAASCNNVQVCKFLVESGAAVFAMTYSDMQTAADKCEEMEEGYTQCSQFLYGVQEKMGIMNKGVIYALWDYEPQNDDELPMKEGDCMTIIHREDEDEIEWWWARLNDKEGYVPRNLLGLYPRIKPRQRSLA

Variants of: B1
Settings: with apcl_human APC2, O95996
Sequence of apcl_human APC2, O95996 (O95996 whole entry): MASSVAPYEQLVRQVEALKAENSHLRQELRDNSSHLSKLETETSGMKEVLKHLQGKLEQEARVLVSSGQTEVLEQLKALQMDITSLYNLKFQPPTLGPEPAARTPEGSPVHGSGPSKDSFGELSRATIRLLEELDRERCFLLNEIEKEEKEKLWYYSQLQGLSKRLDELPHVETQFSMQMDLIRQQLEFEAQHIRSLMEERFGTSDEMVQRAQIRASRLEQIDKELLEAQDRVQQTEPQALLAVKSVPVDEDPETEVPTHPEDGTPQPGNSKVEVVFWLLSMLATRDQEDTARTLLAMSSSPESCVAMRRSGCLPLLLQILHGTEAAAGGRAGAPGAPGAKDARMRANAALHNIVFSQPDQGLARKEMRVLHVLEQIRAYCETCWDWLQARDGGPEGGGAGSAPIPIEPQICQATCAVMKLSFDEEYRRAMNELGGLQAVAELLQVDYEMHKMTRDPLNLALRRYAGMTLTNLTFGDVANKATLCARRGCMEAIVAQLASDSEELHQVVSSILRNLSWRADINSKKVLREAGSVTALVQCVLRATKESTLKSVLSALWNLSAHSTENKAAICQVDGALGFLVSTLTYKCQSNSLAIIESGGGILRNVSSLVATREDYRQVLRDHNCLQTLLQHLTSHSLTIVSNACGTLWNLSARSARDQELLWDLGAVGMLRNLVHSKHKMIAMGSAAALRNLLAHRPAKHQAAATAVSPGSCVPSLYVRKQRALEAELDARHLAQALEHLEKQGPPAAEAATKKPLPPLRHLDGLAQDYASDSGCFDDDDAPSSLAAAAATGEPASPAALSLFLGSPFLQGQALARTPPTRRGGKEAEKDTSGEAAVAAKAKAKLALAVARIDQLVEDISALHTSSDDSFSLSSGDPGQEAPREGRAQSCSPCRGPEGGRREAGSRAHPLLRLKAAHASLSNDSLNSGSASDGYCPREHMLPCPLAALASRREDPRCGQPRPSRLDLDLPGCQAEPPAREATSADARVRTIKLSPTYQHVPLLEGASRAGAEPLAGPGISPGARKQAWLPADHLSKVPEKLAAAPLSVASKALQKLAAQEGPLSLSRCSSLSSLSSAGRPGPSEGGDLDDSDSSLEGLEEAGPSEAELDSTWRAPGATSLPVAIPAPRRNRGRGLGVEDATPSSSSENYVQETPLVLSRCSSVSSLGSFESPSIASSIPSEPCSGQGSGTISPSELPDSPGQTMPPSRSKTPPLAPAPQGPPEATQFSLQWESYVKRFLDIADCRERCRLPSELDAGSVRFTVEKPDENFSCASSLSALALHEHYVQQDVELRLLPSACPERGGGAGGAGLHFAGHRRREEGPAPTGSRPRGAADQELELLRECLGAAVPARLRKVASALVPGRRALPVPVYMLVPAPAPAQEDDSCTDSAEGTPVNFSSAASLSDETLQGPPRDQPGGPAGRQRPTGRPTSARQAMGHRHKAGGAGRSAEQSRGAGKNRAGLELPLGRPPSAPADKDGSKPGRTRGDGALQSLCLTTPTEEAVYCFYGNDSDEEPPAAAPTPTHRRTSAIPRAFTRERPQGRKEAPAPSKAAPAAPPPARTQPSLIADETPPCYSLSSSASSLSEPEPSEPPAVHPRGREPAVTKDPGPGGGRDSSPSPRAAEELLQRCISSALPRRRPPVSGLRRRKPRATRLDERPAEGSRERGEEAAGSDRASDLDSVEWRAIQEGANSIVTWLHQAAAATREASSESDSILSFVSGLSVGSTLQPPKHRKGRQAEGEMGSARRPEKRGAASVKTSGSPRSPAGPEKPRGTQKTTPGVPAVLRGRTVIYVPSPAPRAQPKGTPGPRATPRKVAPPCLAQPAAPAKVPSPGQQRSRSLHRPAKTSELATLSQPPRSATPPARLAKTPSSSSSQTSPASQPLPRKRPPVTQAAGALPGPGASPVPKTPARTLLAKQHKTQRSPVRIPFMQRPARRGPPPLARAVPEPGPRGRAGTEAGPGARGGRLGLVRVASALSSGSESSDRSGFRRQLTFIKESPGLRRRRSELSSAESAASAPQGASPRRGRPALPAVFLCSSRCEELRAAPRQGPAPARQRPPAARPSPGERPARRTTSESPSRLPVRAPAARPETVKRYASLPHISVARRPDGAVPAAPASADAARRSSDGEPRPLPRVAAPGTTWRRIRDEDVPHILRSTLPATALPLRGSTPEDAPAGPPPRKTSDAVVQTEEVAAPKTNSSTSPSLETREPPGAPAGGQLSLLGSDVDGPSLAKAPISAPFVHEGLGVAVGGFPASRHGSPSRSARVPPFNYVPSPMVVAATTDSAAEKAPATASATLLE

Variant	effect of a mutation on the interaction
W1098K	disrupting interaction strength
